Here are results for 8 molecules from patent US20080008707A1, “Denatured collagen peptides and uses thereof” (Cell-Matrix, Inc., priority 2006, published 2008).

Square brackets hold non-standard residues; d marks the D form. Ends that are not written are not given here. Hyp = O=C(O)[C@@H]1C[C@@H](O)CN1 Bounds are passed on as bounds.

One experiment has as its system D93. Kind of experiment: Peptide array screening ELISA: D93 binding to biotinylated synthetic collagen peptides. To be noted: for MAB BINDING (OD450nM): D93 at 10 μg/mL, average of duplicate tests, secondary array, proline or hydroxyproline at each proline position; for binding activity by D93 (primary peptide array): 10 μg/mL D93, 16-mers with N-terminal biotin, 50% proline/hydroxyproline mixture at each proline. The method, then:
The synthesis of short peptide arrays or single peptides was contracted to New England Peptide, Gardner, Mass. A peptide array (primary array) was initially constructed which corresponded to specific locations in the protein sequences that were identified in by N-terminal sequencing reactions as described above. The peptide array consisted of a 96-well microplate template containing individual, overlapping peptides (˜1 to 10 mg/well) corresponding to a contiguous sequence of the human collagen type alpha I chain (between residues G1,064 and T1,669) with an N-terminal biotin and 50% hydroxyproline or proline mixture for each proline residue, with a length of 16 amino acids and overlap of 10 amino acids with the adjacent protein sequence. Peptides were dissolved in 400 μL DMSO to achieve a stock peptide concentration of 2.5 to 25 mg/mL.
The ELISA assay described above was used screen peptides for D93 binding activity. Briefly, 100 μL of streptavidin at 10 μg/mL in PBS was coated onto 96-well microtiter plates from 12 to 18 hours at 2 to 8° C. Plates were blocked with 1% BSA/PBS as above. D93 was diluted to 10 μg/mL in 1% BSA/PBS, and 100 μL per well was added, in duplicate, as described above and incubated for 1 hour at room temperature. The secondary anti-human IgG-HRP, substrate development and plate reader steps were as described above. Peptides which were bound by D93 were further tested for inhibition of D93 binding to human heat-denatured-collagen IV using the ELISA described above. Peptides and D93 antibody were prepared at a 2× concentration in 1% BSA/PBS of the final test concentration and pre-mixed in 1.7 mL microfuge for 15 minutes prior to adding to the microplate wells.
A second peptide array was constructed based on permutations of the protein sequence (collagen IV alpha I chain residues 1337-1352, termed “peptide 40” of the primary array) in the primary array that reacted with D93. The secondary array consisted of individual peptides with either proline or hydroxyproline at each proline residue in the peptide PGAKGLPGPPGPPGPY (SEQ ID NO: 1).

For experiment [1], the target named is biotinylated synthetic collagen peptide α1(IV) P1337-Y1352 (human). The experiment is described as follows: SPR, high density biotinylated peptide surface on streptavidin, avidity model, CLAMP.
Experiment [2] has the same target. Kind of experiment: SPR (Biacore), high density biotinylated peptide on streptavidin chip, monomeric D93 Fab.
For experiment [3] the target is unchanged. The experiment is described as follows: SPR, high density biotinylated peptide surface on streptavidin, avidity model (second binding step), CLAMP.
Experiment [4] has as its target human heat-denatured collagen type IV (human). The experiment is described as follows: SPR, low density denatured collagen IV surface, avidity model (second binding step), CLAMP.
The target of experiment [5] is biotinylated synthetic collagen peptide α1(IV) P1337-Y1352 (human). The experiment is described as follows: SPR (Biacore), medium density biotinylated peptide on streptavidin chip, monomeric D93 Fab.
The target of experiment [6] is human heat-denatured collagen type IV (human). Kind of experiment: SPR, medium density denatured collagen IV surface, avidity model (second binding step), CLAMP.
Sequence of human heat-denatured collagen type IV (human) (P08572 other isoform, or with tags, fused parts or gaps): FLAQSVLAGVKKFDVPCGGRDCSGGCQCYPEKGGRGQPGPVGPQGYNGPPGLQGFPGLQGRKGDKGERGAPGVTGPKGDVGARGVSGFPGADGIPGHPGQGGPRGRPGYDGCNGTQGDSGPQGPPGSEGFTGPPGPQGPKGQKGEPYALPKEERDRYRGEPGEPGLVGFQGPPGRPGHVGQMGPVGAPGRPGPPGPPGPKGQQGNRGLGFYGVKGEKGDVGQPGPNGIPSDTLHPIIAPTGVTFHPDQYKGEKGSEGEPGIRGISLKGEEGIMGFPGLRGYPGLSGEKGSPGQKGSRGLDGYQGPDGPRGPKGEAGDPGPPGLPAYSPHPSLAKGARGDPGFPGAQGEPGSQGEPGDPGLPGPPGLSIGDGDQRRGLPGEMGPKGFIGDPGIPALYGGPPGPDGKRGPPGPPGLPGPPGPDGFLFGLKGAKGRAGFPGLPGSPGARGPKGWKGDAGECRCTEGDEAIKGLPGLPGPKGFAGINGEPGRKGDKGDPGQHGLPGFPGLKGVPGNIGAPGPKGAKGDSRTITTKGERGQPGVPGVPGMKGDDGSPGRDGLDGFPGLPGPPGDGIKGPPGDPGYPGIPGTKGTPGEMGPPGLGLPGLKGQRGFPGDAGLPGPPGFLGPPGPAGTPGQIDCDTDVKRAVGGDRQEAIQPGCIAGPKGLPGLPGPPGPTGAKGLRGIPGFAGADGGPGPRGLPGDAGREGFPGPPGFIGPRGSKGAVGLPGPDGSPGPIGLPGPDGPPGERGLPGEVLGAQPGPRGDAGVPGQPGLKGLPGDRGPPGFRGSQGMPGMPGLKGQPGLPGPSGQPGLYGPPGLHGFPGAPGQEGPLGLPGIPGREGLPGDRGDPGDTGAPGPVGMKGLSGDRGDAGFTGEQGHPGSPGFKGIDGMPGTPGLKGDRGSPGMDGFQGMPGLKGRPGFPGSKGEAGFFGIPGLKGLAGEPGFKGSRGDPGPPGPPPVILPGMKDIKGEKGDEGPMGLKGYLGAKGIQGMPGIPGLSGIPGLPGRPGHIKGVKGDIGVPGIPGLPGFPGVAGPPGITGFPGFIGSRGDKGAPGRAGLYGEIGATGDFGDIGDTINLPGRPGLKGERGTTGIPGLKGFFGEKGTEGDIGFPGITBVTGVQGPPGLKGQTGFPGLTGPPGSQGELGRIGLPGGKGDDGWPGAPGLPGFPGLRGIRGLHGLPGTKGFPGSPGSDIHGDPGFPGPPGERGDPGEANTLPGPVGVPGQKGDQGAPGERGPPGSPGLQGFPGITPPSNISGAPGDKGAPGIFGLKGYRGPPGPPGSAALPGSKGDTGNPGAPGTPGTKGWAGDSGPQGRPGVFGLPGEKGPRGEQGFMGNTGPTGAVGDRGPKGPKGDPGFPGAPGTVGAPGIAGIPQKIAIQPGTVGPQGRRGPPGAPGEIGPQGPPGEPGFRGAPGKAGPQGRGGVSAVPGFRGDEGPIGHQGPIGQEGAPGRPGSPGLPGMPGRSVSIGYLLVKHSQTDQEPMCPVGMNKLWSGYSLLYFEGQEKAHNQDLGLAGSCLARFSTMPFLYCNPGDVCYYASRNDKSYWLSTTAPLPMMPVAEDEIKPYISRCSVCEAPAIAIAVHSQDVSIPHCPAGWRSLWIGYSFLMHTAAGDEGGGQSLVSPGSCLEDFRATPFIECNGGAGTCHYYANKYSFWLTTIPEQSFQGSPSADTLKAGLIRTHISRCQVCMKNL
The target in experiment [7] is biotinylated synthetic collagen peptide α1(IV) P1337-Y1352 (human). The experiment is described as follows: SPR (Biacore), low density biotinylated peptide on streptavidin chip, monomeric D93 Fab.
Experiment [8] addresses human heat-denatured collagen type IV (human). Kind of experiment: SPR, low density denatured collagen IV surface, avidity model, CLAMP.
Experiment [9] has as its target biotinylated synthetic collagen peptide α1(IV) P1337-Y1352 (human). Kind of experiment: SPR, medium density biotinylated peptide surface on streptavidin, avidity model (second binding step), CLAMP.
Experiment [10] has as its target dn-collagen or synthetic peptide (sensor chips with a low or medium density). The experiment is described as follows: SPR (Biacore), bivalent antibody binding, avidity model.
Experiment [11] deals with biotinylated synthetic collagen peptide α1(IV) P1337-Y1352 (human). The experiment is described as follows: SPR, low density biotinylated peptide surface on streptavidin, simple 1:1 interaction model, CLAMP.
The target in experiment [12] is human heat-denatured collagen type IV (human). Kind of experiment: SPR, medium density denatured collagen IV surface, avidity model, CLAMP.
The target is the same in experiment [13]. Kind of experiment: SPR (Biacore), low density dn-collagen on CM5 chip, monomeric (one Fab region) binding.
Experiment [14] has the same target. Kind of experiment: SPR (Biacore), medium density dn-collagen on CM5 chip, monomeric (one Fab region) binding.
In experiment [15] the target is biotinylated synthetic collagen peptide α1(IV) P1337-Y1352 (human). Kind of experiment: SPR, medium density biotinylated peptide surface on streptavidin, avidity model, CLAMP.
The target in experiment [16] is human heat-denatured collagen type IV (human). Kind of experiment: SPR (Biacore), high density dn-collagen on CM5 chip, monomeric (one Fab region) binding.
Experiment [17] shares this target. Kind of experiment: SPR, high density denatured collagen IV surface, avidity model (second binding step), CLAMP.
Experiment [18] shares this target. The experiment is described as follows: SPR, high density denatured collagen IV surface, avidity model, CLAMP.
Experiment [19] has the same target. The experiment is described as follows: ELISA, wells coated with human heat-denatured collagen IV, anti-mouse IgM-HRP, read at 450 nm.
The next experiment has as its target denatured collagen V. Kind of experiment: ELISA (data not shown).
Experiment [20] concerns the target human heat-denatured collagen type IV (human). Kind of experiment: ELISA (data not shown).
For another experiment, the target named is denatured collagen III. Kind of experiment: ELISA (data not shown).
In experiment [21] the target is denatured collagen type-I (human) (UniProt P02452). Kind of experiment: cell-based or functional assay.
Sequence of UniProt P02452 (P02452 21-1464 V1081A/Q1391K, chain 1 of 2): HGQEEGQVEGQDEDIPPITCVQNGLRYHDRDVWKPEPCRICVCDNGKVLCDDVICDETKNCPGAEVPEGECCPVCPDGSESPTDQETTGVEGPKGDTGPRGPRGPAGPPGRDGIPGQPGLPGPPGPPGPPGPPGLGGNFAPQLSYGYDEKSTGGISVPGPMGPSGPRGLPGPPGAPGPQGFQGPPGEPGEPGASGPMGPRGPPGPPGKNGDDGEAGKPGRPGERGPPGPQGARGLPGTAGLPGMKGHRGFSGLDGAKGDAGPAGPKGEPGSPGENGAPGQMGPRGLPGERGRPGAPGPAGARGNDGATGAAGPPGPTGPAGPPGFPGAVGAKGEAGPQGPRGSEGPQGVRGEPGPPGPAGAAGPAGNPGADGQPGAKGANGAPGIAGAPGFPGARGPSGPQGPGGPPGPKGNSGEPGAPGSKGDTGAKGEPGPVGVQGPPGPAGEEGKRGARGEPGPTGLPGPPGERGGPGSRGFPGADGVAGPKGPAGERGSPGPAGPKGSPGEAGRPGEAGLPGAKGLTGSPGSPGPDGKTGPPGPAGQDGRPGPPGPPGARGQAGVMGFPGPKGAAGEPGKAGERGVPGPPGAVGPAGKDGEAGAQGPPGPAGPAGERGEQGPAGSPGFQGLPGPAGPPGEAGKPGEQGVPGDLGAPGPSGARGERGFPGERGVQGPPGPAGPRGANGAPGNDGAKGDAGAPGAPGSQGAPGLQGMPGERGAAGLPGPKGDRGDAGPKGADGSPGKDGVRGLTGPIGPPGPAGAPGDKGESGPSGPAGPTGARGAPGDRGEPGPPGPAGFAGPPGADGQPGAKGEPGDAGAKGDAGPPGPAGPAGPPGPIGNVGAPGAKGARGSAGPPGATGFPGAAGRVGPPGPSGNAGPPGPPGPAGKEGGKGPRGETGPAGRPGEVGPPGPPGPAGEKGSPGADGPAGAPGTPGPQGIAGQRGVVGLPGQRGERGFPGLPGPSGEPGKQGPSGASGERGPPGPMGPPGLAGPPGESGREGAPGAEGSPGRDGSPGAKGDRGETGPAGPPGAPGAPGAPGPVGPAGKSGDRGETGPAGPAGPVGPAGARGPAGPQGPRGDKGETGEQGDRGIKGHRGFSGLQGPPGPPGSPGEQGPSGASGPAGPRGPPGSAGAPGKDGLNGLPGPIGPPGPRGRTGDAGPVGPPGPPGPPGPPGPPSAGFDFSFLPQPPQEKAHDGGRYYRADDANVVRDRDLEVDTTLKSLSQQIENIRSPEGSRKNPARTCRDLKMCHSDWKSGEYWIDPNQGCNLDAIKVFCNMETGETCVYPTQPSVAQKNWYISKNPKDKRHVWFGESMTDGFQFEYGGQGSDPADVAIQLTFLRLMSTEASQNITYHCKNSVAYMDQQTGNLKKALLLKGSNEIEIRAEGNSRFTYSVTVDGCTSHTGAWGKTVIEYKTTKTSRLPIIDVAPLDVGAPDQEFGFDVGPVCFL
Sequence of UniProt P02452 (P02452 other isoform, or with tags, fused parts or gaps, chain 2 of 2): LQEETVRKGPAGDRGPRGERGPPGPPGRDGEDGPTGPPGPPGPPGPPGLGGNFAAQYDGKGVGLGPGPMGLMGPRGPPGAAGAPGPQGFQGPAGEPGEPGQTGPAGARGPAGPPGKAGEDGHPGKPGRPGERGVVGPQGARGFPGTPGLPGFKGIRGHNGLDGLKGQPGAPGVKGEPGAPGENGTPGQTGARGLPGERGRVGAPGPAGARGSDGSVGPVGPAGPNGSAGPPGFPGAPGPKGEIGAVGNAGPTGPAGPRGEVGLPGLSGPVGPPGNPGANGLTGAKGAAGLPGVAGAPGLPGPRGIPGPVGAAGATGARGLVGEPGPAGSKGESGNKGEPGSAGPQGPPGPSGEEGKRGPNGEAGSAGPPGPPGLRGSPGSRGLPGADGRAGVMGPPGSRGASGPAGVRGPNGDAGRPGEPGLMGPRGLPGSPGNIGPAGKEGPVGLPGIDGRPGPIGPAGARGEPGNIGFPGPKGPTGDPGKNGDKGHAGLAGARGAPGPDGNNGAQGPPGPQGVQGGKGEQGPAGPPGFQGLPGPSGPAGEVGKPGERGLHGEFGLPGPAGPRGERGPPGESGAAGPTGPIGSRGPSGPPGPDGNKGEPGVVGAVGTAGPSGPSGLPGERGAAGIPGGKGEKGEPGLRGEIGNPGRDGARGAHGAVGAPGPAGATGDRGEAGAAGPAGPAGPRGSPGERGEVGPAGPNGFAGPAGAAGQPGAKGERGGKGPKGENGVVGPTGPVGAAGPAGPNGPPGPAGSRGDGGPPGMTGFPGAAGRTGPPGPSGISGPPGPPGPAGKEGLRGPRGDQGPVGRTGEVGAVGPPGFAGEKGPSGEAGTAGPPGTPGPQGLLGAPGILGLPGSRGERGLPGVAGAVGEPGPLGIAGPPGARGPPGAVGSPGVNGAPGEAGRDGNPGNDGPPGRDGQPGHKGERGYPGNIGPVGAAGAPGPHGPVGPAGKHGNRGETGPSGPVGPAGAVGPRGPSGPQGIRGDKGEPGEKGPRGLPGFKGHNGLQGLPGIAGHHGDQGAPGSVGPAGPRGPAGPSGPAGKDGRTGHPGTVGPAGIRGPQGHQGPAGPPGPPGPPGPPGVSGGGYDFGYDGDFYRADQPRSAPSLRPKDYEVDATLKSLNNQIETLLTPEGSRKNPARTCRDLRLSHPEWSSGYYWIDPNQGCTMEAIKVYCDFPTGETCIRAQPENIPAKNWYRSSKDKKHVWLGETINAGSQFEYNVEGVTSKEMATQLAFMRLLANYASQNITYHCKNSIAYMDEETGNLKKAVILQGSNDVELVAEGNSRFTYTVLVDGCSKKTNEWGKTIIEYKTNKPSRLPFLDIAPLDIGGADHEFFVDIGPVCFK
Experiment [22] concerns the target human heat-denatured collagen type IV (human). Kind of experiment: ELISA.
Experiment [23] concerns the target denatured collagen type-I (human) (UniProt P02452). Kind of experiment: ELISA.
Experiment [24] deals with D93, recombinant humanized IgG1 kappa antibody targeting denatured-collagen. The experiment is described as follows: competition ELISA on coated human dn-collagen IV; * separate assay.
Sequence of D93, recombinant humanized IgG1 kappa antibody targeting denatured-collagen (heavy, as listed by the source, chain 1 of 2): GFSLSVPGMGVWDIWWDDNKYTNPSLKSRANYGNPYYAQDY
Sequence of D93, recombinant humanized IgG1 kappa antibody targeting denatured-collagen (light, as listed by the source, chain 2 of 2): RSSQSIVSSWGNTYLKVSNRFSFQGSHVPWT
For experiment [25] the target is unchanged. The experiment is described as follows: competition ELISA on coated human dn-collagen IV.
Experiment [26] concerns the target HUI77, murine IgM anti-denatured-collagen monoclonal antibody. Kind of experiment: competition ELISA on coated dn-collagen IV; * separate assay.
For experiment [27] the target is unchanged. The experiment is described as follows: competition ELISA on coated dn-collagen IV.

Turning to 1 (PGAKGLPGPPGPPGPY) [compound 1], the “MAB BINDING (OD450nM)” value in the experiment on D93 worked out at 0.136 OD450nM.

In the case of “13: peptide 13 of the primary collagen IV alpha 1 array: biotinylated 16-mer, 50% proline/hydroxyproline at each proline (PGAKGLPGPPGPPGPY; not fully specified; also: biotinylated, position not given here) [compound 13]”, in the experiment on D93, the “binding activity by D93 (primary peptide array)” value is “higher activity than the others” and the “MAB BINDING (OD450nM)” value was found to be 0.348 OD450nM.

For “D93, recombinant humanized IgG1 kappa antibody targeting denatured-collagen”, the koff is 0.057 s⁻¹ in [1]; 0.33 s⁻¹ in experiment [8]; 0.52 s⁻¹ in [11]; 0.21 s⁻¹ in experiment [12]; 0.1 s⁻¹ in experiment [15]; 0.038 s⁻¹ in experiment [18]. For the same molecule, the on-rate constant (kon) is 41900 M⁻¹ s⁻¹ in experiment [1]; 32700 M⁻¹ s⁻¹ in [8]; 42800 M⁻¹ s⁻¹ in experiment [11]; 26800 M⁻¹ s⁻¹ in [12]; 57800 M⁻¹ s⁻¹ in experiment [15]; 5800 M⁻¹ s⁻¹ in experiment [18]. In addition, the Kd in [2] was 1.3 µM; in experiment [5] it was 1.7 µM; in experiment [7], 11 µM; in experiment [10], 0.03 to 0.063 µM; in experiment [13], 10 µM; in experiment [14], 7.8 µM. In experiment [16], this molecule returned a Kd of 6.5 µM. For the same molecule, the ka2 in experiment [3] amounted to 6.6e-06 RU s-1; in experiment [4], 7.1e-06 RU s-1; in [6] it was 1.8e-06 RU s-1; in experiment [9] it was 5.2e-06 RU s-1; in experiment [17], 4.3e-06 RU s-1. Besides, the kd2 in experiment [3] worked out at 0.014 s⁻¹; in experiment [4] it was 0.00099 s⁻¹; in experiment [6] it was 0.0017 s⁻¹; in [9], 0.006 s⁻¹; in experiment [17], 0.0024 s⁻¹.

“HUI77, murine IgM anti-denatured-collagen monoclonal antibody” returned an EC50 (read off the curve) in [19] of 0.1 µg/mL. The fold tighter binding, denatured over native form with denatured collagen V was 10 fold; in experiment [20], 8 fold; in the experiment with denatured collagen III, 7 fold. This molecule also returned an inhibition of human endothelial cell adhesion to denatured collagen type-I in experiment [21] of 40%. The inhibition of human endothelial cell migration on denatured collagen-I in experiment [21] worked out at 80%. The same molecule returned a fold affinity, denatured over native collagen type-IV in experiment [22] of 10 fold. Moreover, in [23], the fold apparent reactivity, denatured over native collagen type-I is > 10 fold.

On to “peptide 40: primary array peptide, collagen IV alpha I chain residues 1337-1352, 50% proline/hydroxyproline mixture; b687 equates it with SEQ ID NO: 2 (XGAKGLPGPXGPXGPY; not fully specified; X: randomised place (mixture))”, for which the “binding activity by D93 (primary peptide array)” value in the experiment on D93 was “higher activity than the others”.

B1: non-collagen control peptide No. 6, … (SEQ ID NO: 39) (peptide)
peptide: CTWPRHHTTDALL
As to B1, the % inhibition of D93 binding to dn-collagen IV, peptide 1000 µM in experiment [24] came to 4.9%. In experiment [25], the % inhibition of D93 binding to dn-collagen IV, peptide 1 µM stood at 4.5%; the % inhibition of D93 binding to dn-collagen IV, peptide 10 µM amounted to 1%; the % inhibition of D93 binding to dn-collagen IV, peptide 100 µM amounted to 0%; the % inhibition of D93 binding to dn-collagen IV, peptide 1000 µM was found to be 3.5%. The % inhibition of HUI77 binding to dn-collagen IV, peptide 1000 µM in experiment [26] worked out at 11.1%. In [27], this molecule yielded a % inhibition of HUI77 binding to dn-collagen IV, peptide 10 µM of 6.5%; a % inhibition of HUI77 binding to dn-collagen IV, peptide 100 µM of 6.5%; a % inhibition of HUI77 binding to dn-collagen IV, peptide 1000 µM of 6.5%.

B2: synthetic peptide No. 24, LPGFPG (SEQ ID NO: 38) (peptide)
peptide: LPGFPG
modifications: also: hydroxyproline marking, if any, lost
For the molecule B2, in experiment [24], the % inhibition of D93 binding to dn-collagen IV, peptide 1 µM amounted to 5.4%; the % inhibition of D93 binding to dn-collagen IV, peptide 10 µM is 7.8%; the % inhibition of D93 binding to dn-collagen IV, peptide 100 µM was 8.3%; the % inhibition of D93 binding to dn-collagen IV, peptide 1000 µM stood at 11.6%. For the same molecule, in experiment [26], the % inhibition of HUI77 binding to dn-collagen IV, peptide 10 µM came out at 10.2%; the % inhibition of HUI77 binding to dn-collagen IV, peptide 100 µM worked out at 0%; the % inhibition of HUI77 binding to dn-collagen IV, peptide 1000 µM was 3.7%.

B3: synthetic peptide No. 3, … (SEQ ID NO: 30) (peptide)
peptide: GP[Hyp]GP[Hyp]GPY
For the molecule B3, in [24], the % inhibition of D93 binding to dn-collagen IV, peptide 10 µM came out at 79.9% and the % inhibition of D93 binding to dn-collagen IV, peptide 100 µM was determined as 90.3%. In [25], the % inhibition of D93 binding to dn-collagen IV, peptide 1 µM came to 33%; the % inhibition of D93 binding to dn-collagen IV, peptide 10 µM was determined as 82.5%; the % inhibition of D93 binding to dn-collagen IV, peptide 100 µM was 94%; the % inhibition of D93 binding to dn-collagen IV, peptide 1000 µM was found to be 94%. Moreover, in [26], the % inhibition of HUI77 binding to dn-collagen IV, peptide 100 µM was 0% and the % inhibition of HUI77 binding to dn-collagen IV, peptide 1000 µM is 63%. Also, in [27], the % inhibition of HUI77 binding to dn-collagen IV, peptide 10 µM is 8.5%; the % inhibition of HUI77 binding to dn-collagen IV, peptide 100 µM is 12%; the % inhibition of HUI77 binding to dn-collagen IV, peptide 1000 µM amounted to 78%.
